Source: US20190345255A1

Tests used:
[1] = biological target: Mouse recombinant MGL2 (macrophage galactose binding lectin 2) (mouse); assay: competition ELISA on MGL2-coated plate; 10 µg/mL Tn-BSA against 10 µg/mL biotinylated TF-PS A1 probe 25b (a polysaccharide) as competitor
[2] = biological target: Mouse recombinant MGL2 (macrophage galactose binding lectin 2) (mouse); assay: competition ELISA on MGL2-coated plate; 10 µg/mL Tn-BSA against 10 µg/mL biotinylated Tn-PS A1 probe 25a (a polysaccharide) as competitor
[3] = biological target: Tn-BSA (Tn antigen conjugated to bovine serum albumin) (bovine) (UniProt P02769); assay: ELISA titration of purified IgM, Tn-BSA coated plates
Sequence of UniProt P02769 (P02769 25-607 limits assumed, form in doubt): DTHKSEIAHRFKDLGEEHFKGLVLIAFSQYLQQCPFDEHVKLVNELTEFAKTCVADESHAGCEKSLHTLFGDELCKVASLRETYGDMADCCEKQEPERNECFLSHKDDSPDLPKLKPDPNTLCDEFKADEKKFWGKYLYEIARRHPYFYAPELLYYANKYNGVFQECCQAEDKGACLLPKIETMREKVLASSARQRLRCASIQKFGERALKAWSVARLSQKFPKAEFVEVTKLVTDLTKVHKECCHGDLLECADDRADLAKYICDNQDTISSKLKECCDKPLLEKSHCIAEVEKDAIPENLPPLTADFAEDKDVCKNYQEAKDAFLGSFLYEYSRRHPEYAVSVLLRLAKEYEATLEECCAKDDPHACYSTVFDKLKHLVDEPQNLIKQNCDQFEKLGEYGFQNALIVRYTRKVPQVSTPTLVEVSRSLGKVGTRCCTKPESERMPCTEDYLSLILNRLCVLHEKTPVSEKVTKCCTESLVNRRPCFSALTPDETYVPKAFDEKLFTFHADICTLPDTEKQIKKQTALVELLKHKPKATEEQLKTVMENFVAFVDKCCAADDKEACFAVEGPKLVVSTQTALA

Row | percent inhibition [1] [%] | percent inhibition [2] [%] | optical density (O.D.) at 0.3 µg/mL antibody [3] [O.D.] | Molecule
1 | 64 | 44 |  | Tn-BSA (Tn antigen conjugated to bovine serum albumin) (from UniProt P02769 25-607)
2 |  |  | > 0.2 | Kt-IgM-8 (antibody, V domains shown) VH: QIQLVQSGPELKKPGETVKISCKASGYTFTTYGMSWVKQAPGKGLKWMGWINTYSGVPTYADDFKGRFAFSLETSASTAYLQINNLKNEDTATYFCARHYYGGAYWGQGTLVTVSA VL: QIVLTQSPAIMSASPGEKVTMTCSASSSVSYMHWYQQKSGTSPKRWIYDTSKLASGVPARFSGSGSGTSYSLTISSMEAEDAATYYCQQWSSNPLTFGAGTKLELK
